According to patent publication US20080004436A1 (YEDA RESEARCH AND DEVELOPMENT CO LTD AT THE WEIZMANN …, published 2008):

T1: colicin E7 DNase (ColE7) (E. coli, UniProt Q47112 444-576)
T1 sequence: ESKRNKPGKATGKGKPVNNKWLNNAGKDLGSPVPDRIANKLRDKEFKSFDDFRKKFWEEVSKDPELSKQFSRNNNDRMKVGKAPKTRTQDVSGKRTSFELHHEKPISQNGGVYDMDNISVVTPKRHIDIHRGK

T2: colicin E9 DNase (ColE9) (E. coli, UniProt P09883 449-582)
T2 sequence: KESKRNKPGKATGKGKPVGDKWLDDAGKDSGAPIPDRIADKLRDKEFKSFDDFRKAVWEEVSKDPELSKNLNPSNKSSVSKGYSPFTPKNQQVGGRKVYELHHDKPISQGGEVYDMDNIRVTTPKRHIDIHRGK

B1: in vitro evolved Im9 variant #8 (Round 8, high stringency) (designed binder)
chain: MELKHRISDYTEAEFLQLVTTICDANASSEEELDKLITHFEEMTEHPSGSDLIYWPKEGDDDSPSGIVNTVKQWRAANGKSGFKQG
notes: also called Evolved Im variant#8; evolved variant 8
B2: immunity protein 7 (Im7), wild type (other)
chain: MELKNSISDYTEAEFVQLLKEIEKENVAATDDVLDVLLEHFVKITEHPDGTDLIYYPSDNRDDSPEGIVKEIKEWRAANGKPGFKQG
notes: also called wild-type Im7

Key:
[1] = biological target: T1, colicin E7 DNase (ColE7); assay: affinity measurements (Kleanthous laboratory; method not stated)
[2] = biological target: T1, colicin E7 DNase (ColE7); assay: cell-based or functional assay
[3] = biological target: T2, colicin E9 DNase (ColE9); assay: not stated (running text of Example 4)
[4] = biological target: T1, colicin E7 DNase (ColE7); assay: not stated (running text of Example 4)

Binder | Kd [1] [pM] | koff [1] [s⁻¹] | kon [1] [M⁻¹ s⁻¹] | ColE7 concentration at which full protection was observed, in vivo protection assay, 0.05 mM IPTG [2] [µM] | ColE7 concentration at which full protection was observed, in vivo protection assay, 1 mM IPTG [2] [µM] | ColE7 concentration at which full protection was observed, in vivo protection assay, w/o IPTG [2] [µM] | Kd [3] [pM] | Kd [4] [pM]
B1 | 3.85 | 0.0032 | 8.3e+08 |  |  |  |  | 
B2 | ≤ 0.01 | ≤ 1e-05 | 7.6e+08 | > 100 | > 100 | 100 | 56000 | 0.00079
